Test results: US20140037648A1 (HUMABS BIOMED, published 2014)

B1: HMB3210v3 (antibody, V domains shown)
VH: EVQLVESGGGLVKPGGSLRLSCAASGFTFSSYSMNWVRQAPGKGLEWVSSISASSSYSDYADSAKGRFTISRDNAKTSLFLQMNSLRAEDTAIYFCARARATGYSSITPYFDIWGQGTLVTVSS
VL: QSVVTQPPSVSGAPGQRVTISCTGSSSNIGAGYDVHWYQQLPGTAPKLLIYDNNNRPSGVPDRFSASKSGTSASLAITGLQAEDEADYYCQSYDRSLSGVFGTGTKVTVL
notes: also called HMB3210 variant 3
B2: Palivizumab (antibody, V domains shown)
VH: QVTLRESGPALVKPTQTLTLTCTFSGFSLSTSGMSVGWIRQPPGKALEWLADIWWDDKKDYNPSLKSRLTISKDTSKNQVVLKVTNMDPADTATYYCARSMITNWYFDVWGAGTTVTVSS
VL: DIQMTQSPSTLSASVGDRVTITCKCQLSVGYMHWYQQKPGKAPKLLIYDTSKLASGVPSRFSGSGSGTEFTLTISSLQPDDFATYYCFQGSGYPFTFGGGTKLEIK

Key:
[1] = molecular target: F protein of PVM strain 15 (PVM (strain 15)); assay: cell-based or functional assay
[2] = molecular target: F protein of BRSV strain RB94 (BRSV (strain RB94)); assay: cell-based or functional assay
[3] = molecular target: T1, stabilized form of the full-length pre-fusion RSV F protein (RSV); assay: surface plasmon resonance
T1 construct: also called pre-fusion F protein; RSV F pre-fusion recombinant protein

[4] = molecular target: T2, F protein of RSV strain A2 (A, 1961 Australia; A/A2/61) (RSV (strain A2), UniProt P03420 26-574); assay: cell-based or functional assay
[5] = molecular target: T2, F protein of RSV strain A2 (A, 1961 …); assay: cell-based or functional assay; remark: listed apart in the source
[6] = molecular target: F protein of RSV 9320 (B, Massachusetts US, 1977; B/9320/77) (RSV (strain 9320)); assay: cell-based or functional assay
[7] = molecular target: F protein of RSV 18537 (B, Washington District of Columbia US, 1962; B/18537/62) (RSV (strain 18537), UniProt P13843 26-574); assay: cell-based or functional assay
[8] = molecular target: F protein of RSV WV/14617/85 (B, Huntington West Virginia, 1985; B/14617/85) (RSV (strain WV/14617/85)); assay: cell-based or functional assay

Binder | IC50, neutralization of PVM strain 15 [1] | IC50, neutralization of BRSV strain RB94 [2] | Kd [3] | IC50 (ng/ml), microneutralization [4] | Neutralization IC50 [5] | Neutralization IC50 [6] | Neutralization IC50 [7] | Neutralization IC50 [8]
B1 | 0.1 µg/mL | 0.01 µg/mL | 0.1 nM | – | – | – | – | –
B2 | – | – | – | 524 ng/mL | 0.617 µg/mL | 0.069 µg/mL | 0.143 µg/mL | 0.129 µg/mL
